{
  "source": "IntAct's records for PubMed 21262861",
  "data": [
    {"biological_target": "sox6_human SOX6 (UniProt P35712)", "sequence (P35712 whole entry)": "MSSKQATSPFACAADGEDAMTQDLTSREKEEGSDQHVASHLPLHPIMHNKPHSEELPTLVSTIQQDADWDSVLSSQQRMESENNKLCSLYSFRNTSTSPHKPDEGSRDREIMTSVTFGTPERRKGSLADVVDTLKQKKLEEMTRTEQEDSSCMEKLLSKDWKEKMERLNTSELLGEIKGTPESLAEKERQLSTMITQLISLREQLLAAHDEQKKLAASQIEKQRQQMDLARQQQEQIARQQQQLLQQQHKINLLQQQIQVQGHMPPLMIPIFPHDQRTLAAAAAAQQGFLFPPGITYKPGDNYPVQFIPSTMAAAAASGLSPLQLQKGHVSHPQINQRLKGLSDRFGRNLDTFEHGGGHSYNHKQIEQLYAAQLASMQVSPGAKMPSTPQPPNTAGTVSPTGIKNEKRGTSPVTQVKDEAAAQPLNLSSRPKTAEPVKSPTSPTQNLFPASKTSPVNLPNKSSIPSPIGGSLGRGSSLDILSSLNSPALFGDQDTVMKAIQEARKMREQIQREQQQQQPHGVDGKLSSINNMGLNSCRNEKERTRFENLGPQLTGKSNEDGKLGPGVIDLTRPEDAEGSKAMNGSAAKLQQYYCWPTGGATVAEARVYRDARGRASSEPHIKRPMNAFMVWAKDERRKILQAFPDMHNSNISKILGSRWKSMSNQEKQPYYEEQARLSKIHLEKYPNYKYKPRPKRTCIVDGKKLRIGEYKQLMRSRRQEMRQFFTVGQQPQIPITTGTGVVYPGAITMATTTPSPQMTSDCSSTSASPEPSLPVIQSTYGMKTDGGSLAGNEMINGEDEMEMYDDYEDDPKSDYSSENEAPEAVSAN", "values": [
      {"substance": "Short stature homeobox protein (Homo sapiens), O15266 R168Y", "effect of a mutation on the interaction": "decreasing interaction"},
      {"substance": "Short stature homeobox protein (Homo sapiens), O15266 D278A", "effect of a mutation on the interaction": "decreasing interaction"},
      {"substance": "Short stature homeobox protein (Homo sapiens), O15266 A170P", "effect of a mutation on the interaction": "disrupting interaction"},
      {"substance": "Short stature homeobox protein (Homo sapiens), O15266 L132V", "effect of a mutation on the interaction": "disrupting interaction"},
      {"substance": "Short stature homeobox protein (Homo sapiens), O15266 A233E", "effect of a mutation on the interaction": "decreasing interaction"},
      {"substance": "Short stature homeobox protein (Homo sapiens), O15266 R195P", "effect of a mutation on the interaction": "decreasing interaction"},
      {"substance": "Short stature homeobox protein (Homo sapiens), O15266 K116E", "effect of a mutation on the interaction": "decreasing interaction"},
      {"substance": "Short stature homeobox protein (Homo sapiens), O15266 R173C", "effect of a mutation on the interaction": "decreasing interaction"}
    ]}
  ]
}
